This test concerns the target FGF ligands. Kind of test: cell-based or functional assay.

B1: FGFR1-CCD fusion protein (protein)
chain: RPSPTLPEQAQPWGAPVEVESFLVHPGDLLQLRCRLRDDVQSINWLRDGVQLAESNRTRITGEEVEVQDSVPADSGLYACVTSSPSGSDTTYFSVNVSDALPSSEDDDDDDDSSSEEKETDNTKPNPVAPYWTSPEKMEKKLHAVPAAKTVKFKCPSSGTPNPTLRWLKNGKEFKPDHRIGGYKVRYATGSIIMDSVVPSDKGNYTCIVENEYGSINHTYQLDVVERSPHRPILQAGLPANKTVALGSNVEFMCKVYSDPQPHIQWLKHIEVNGSKIGPDNLPYVQILKTAGVNTTDKEMEVLHLRNVSFEDAGEYTCLAGNSIGLSHHSAWLTVLEALEERPAVMLKEFMGYQGPPGPPGPPGIPGNHGNNGNNGATGHEGAKGEKGDKGDLGPRGERGQHGPKGEKGYPGIPGYCGPPGPPGPPGIPGNHGNNGNNGATGHEGAKGEKGDKGDLGPRGERGQHGPKGEKGYPGIPDYKDDDDKLQISSTVAAAHHHHHHV
For B1, the MTT assay of HUVEC cells (cell growth / metabolic activity) is less than 50%.

The record behind these values is patent publication US20220324943A1.
